The source of these data is publication PMC9379584 (iScience, 2022).

Values joined by “and” are separate entries in the source; they are usually repeats but may differ in a detail not shown here. Equal values may be shown once. Read-outs that look alike come from different tables or passages of the source.

In assay [1] the test system is INS-1E cells. Nature of the assay: HTRF cAMP assay in INS-1E cells. It is filed as cell-based, rat. The conditions noted are these: normalized to DA's efficacy in parental INS-1E.
In assay [2] the test system is α2A-AR KO INS-1E-derived cell line. Nature of the assay: HTRF cAMP assay in α2A-AR KO INS-1E-derived cells. In kind it is cell-based, rat. In general terms: In TR-FRET formats the signal depends on donor and acceptor labels being close together.
Assay [3] addresses T1, α2A-AR (Rattus norvegicus, UniProt P22909).
T1 sequence (P22909 1-465): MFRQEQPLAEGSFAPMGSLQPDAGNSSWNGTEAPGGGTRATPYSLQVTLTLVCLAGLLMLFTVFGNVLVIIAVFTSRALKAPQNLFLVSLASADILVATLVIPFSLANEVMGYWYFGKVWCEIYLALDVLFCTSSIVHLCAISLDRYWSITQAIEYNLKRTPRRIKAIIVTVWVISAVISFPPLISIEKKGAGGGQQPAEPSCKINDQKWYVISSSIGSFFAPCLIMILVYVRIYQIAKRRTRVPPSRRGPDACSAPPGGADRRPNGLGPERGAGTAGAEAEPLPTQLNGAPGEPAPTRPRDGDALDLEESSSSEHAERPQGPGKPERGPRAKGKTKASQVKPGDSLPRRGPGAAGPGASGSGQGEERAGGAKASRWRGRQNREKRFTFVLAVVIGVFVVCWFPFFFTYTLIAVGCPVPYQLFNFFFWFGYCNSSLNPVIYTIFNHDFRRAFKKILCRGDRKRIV
As to the kind of experiment: cell-based. The settings on record: nanoBRET. Background: BRET reads energy transfer from a luciferase to a nearby fluorophore.

In assay [4] the target is T1, α2A-AR. It is filed as cell-based. The conditions noted are these: nanoBRET.
The subject of assay [5] is mouse pancreatic islets. The conditions noted are these: cited from earlier work.
Assay [6] concerns INS-1E cells. The settings on record: cited from earlier work.
Assay [7] deals with mouse pancreatic islets. Nature of the assay: Glucose-stimulated insulin secretion. It is filed as cell-based. The settings on record: read-out: IC50, inhibition of GSIS; wildtype mouse islets, 20 mM glucose, 90 min.
In assay [8] the test system is INS-1E cells. As to the kind of experiment: Glucose-stimulated insulin secretion. It is filed as cell-based, rat. The conditions noted are these: read-out: IC50, inhibition of GSIS; INS-1E, 20 mM glucose, 90 min.
Assay [9] concerns the target IL6-HiBiT-α2A-AR-HaloTag (rat α2A-adrenergic receptor) (rat) (UniProt P22909). Nature of the assay: FRET or BRET.
For assay [10], the target named is IL6-HiBiT-D2R-HaloTag (human dopamine D2 receptor) (human) (UniProt P14416). Nature of the assay: FRET or BRET.
Assay [11] has as its target IL6-HiBiT-D2R-HaloTag (human dopamine D2 receptor) (human, UniProt P14416 1-443, HaloTag NanoBRET 618 ligand bound to the HaloTag). Nature of the assay: FRET or BRET.
Setting [12] is: α2A-AR KO versus parental INS-1E.
[13] abbreviates: read-out: IC50, inhibition of GSIS, ref Aslanoglou et al. (2021).
Setting [14] is: read-out: IC50, inhibition of GSIS, ref Aslanoglou et al., 2021.

Chain of IL6-HiBiT-D2R-HaloTag (human dopamine D2 receptor) (human) (P14416 whole entry): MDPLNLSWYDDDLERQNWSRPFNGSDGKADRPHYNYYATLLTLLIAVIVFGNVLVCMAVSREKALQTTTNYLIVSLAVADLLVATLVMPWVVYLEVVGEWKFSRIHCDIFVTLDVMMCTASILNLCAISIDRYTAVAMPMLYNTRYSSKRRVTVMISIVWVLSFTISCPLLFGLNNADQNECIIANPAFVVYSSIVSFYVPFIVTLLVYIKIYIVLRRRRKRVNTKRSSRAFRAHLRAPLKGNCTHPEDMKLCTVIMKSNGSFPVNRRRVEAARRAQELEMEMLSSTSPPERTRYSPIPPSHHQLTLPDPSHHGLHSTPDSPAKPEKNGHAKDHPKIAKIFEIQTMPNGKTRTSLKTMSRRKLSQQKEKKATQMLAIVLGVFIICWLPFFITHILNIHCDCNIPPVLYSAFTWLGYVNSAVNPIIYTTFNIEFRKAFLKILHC
Chain of IL6-HiBiT-D2R-HaloTag (human dopamine D2 receptor) (P14416 whole entry): as above

What is called IC50 is the concentration at which inhibition is half-maximal. The EC50 is the midpoint of the concentration-response curve. A low value points to higher potency in that assay. Take `NCCc1ccc(O)c(O)c1` [DA, dopamine]: the “Emax, inhibition of cAMP production” value was 100.00 % DA in assay [1] and 57.15 [46.22–88.79] % DA in [2] (α2A-AR KO, normalized to DA's efficacy in parental INS-1E). In addition, the IC50 is 1500 nM in [2] (read-out: IC50, inhibition of cAMP production, α2A-AR KO); 1300 nM in [5] (setting [13]); 1300 nM in assay [5] (setting [14]); 1490 nM in [6] (setting [13]); 1500 nM in [6] (setting [14]). In assay [2] (setting [12]), the “increase of potency in diminishing cAMP by α2A-AR KO” value turned out to be 1.7 fold. For the same molecule, the “reduction of efficacy in lowering cAMP by α2A-AR KO” value in [2] (setting [12]) is 57% and 57.2%. Besides, the concentration for a half-maximal effect (EC50) in [3] (EC50, Gαi2 recruitment to α2A-AR, Gαi2) was 1040 nM; in assay [3] (EC50, Gαi3 recruitment to α2A-AR, Gαi3), 1030 nM; in [3] (EC50, GαoA recruitment to α2A-AR, GαoA), 836 nM; in assay [3] (EC50, GαoB recruitment to α2A-AR, GαoB), 945 nM; in assay [3] (EC50, Gαz recruitment to α2A-AR, Gαz) it was 666 nM; in [3] (pEC50, GαoB recruitment to α2A-AR, GαoB) it was 933 nM. Moreover, the “β-arrestin1 recruitment to α2A-AR” value in assay [4] is recorded as “negligible recruitment”. Further, the “pIC50, inhibition of GSIS” value in assay [5] (ref Aslanoglou et al. (2021)) is 5.89; in assay [6] (ref Aslanoglou et al. (2021)), 5.83.

As to `Clc1cccc(Cl)c1N=C1NCCN1` [Clonidine, clonidine], the IC50 was found to be 7.36 nM in assay [7] and 9.06 nM in assay [8].

Consider “NanoLuc-Gαi3(91) (from UniProt P08754 1-354) (natural protein)”, for which the Emax of recruitment with bromocriptine (% of the NE response) (% of NE response) in [9] worked out at 12.7.

In the case of “NanoLuc-Gαi1(91) (from UniProt P63096 1-354) (natural protein; other documents disagree on this pair)”, in assay [10], the EC50 of the agonist NE for recruitment was 4900 nM, the EC50 of the agonist bromocriptine for recruitment was 104 nM and the Emax of recruitment with bromocriptine (% of the DA response) (% of DA response) came to 60.

In assay [10], “NanoLuc-Gαi2(91) (from UniProt P04899 1-355) (natural protein; other documents disagree on this pair)” came in with an EC50 of the agonist DA for recruitment of 2.88 nM, an EC50 of the agonist NE for recruitment of 25.3 nM, an EC50 of the agonist bromocriptine for recruitment of 21.6 nM and an Emax of recruitment with bromocriptine (% of the DA response) (% of DA response) of 89.3.

Regarding “NanoLuc-Gαi1(91) (from UniProt P63096 1-354) (natural protein)”, the Emax of recruitment with bromocriptine (% of the NE response) (% of NE response) in assay [9] came out at 15.4.

“NanoLuc-Gαi2(91) (from UniProt P04899 1-355) (natural protein)”: in assay [9], the Emax of recruitment with bromocriptine (% of the NE response) (% of NE response) stood at 43.8.

“NanoLuc-Gαz(91) (from UniProt P19086 1-355) (natural protein)”: the Emax of recruitment with bromocriptine (% of the NE response) (% of NE response) in assay [9] was 21.2.

In assay [9], “NanoLuc-GαoA(91) (from UniProt P09471 1-354) (natural protein)” registered an Emax of recruitment with bromocriptine (% of the NE response) (% of NE response) of 43.

Turning to “NanoLuc-Gαi3(91) (from UniProt P08754 1-354) (natural protein; other documents disagree on this pair)”, in [10], the EC50 of the agonist NE for recruitment is 32600 nM, the EC50 of the agonist bromocriptine for recruitment is 84.3 nM and the Emax of recruitment with bromocriptine (% of the DA response) (% of DA response) is 64.2.

On to “NanoLuc-GαoA(91) (from UniProt P09471 1-354) (natural protein; other documents disagree on this pair)”, for which, in assay [10], the Emax of recruitment with bromocriptine (% of the DA response) (% of DA response) is 109.

In assay [10], “NanoLuc-Gαz(91) (from UniProt P19086 1-355) (natural protein; other documents disagree on this pair)” returned an EC50 of the agonist NE for recruitment of 0.07 nM, an EC50 of the agonist bromocriptine for recruitment of 4.3 nM and an Emax of recruitment with bromocriptine (% of the DA response) (% of DA response) of 66.5.

B1: NanoLuc-GαoB(91) (natural protein)
chain: MGCTLSAEERAALERSKAIEKNLKEDGISAAKDVKLLLLGAGESGKSTIVKQMKIIHEDGFSGEDVKQYKPVVYSNTIQSLAAIVRAMDTLGIEYGDKERKADAKMVCDVVSRMEDTEPFSAELLSAMMRLWGDSGIQECFNRSREYQLNDSAKYYLDSLDRIGAADYQPTEQDILRTRVKTTGIVETHFTFKNLHFRLFDVGGQRSERKKWIHCFEDVTAIIFCVALSGYDQVLHEDETTNRMHESLKLFDSICNNKWFTDTSIILFLNKKDIFEEKIKKSPLTICFPEYTGPSAFTEAVAYIQAQYESKNKSAHKEIYTHVTCATDTNNIQFVFDAVTDVIIAKNLRGCGLY
Consider B1, for which, in assay [11], the “EC50 of the agonist DA for recruitment” value is 22.4 nM, the “EC50 of the agonist NE for recruitment” value is 139 nM and the “EC50 of the agonist bromocriptine for recruitment” value came to 0.27 nM.
